Reference: US11304964B2, “Bolaamphiphilic compounds, compositions and uses thereof” (priority 2012, dated 2022)

How the values were obtained:
[1] = Tenofovir encapsulation in bolaamphiphile vesicles (UV absorbance after Sephadex G50 separation); type: physicochemical; settings: vesicles with vs without SA, Sephadex G50, absorbance at 260 nm
Experimental: Bolaamphiphiles, cholesterol, and CHMES (2:1:1 mole ratio) are dissolved in chloroform or a suitable solvent. […] The solvents are evaporated under vacuum and the resultant thin films are hydrated in 0.2 mg/mL CF solution in PBS and probe-sonicated (Vibra-Cell VCX130 sonicator, Sonics and Materials Inc., Newtown, Conn., USA) with amplitude 20%, pulse on: 15 sec, pulse off: 10 sec to achieve homogenous vesicle dispersions. Vesicle size and zeta potential were determined using a Zetasizer Nano ZS (Malvern Instruments, UK).
Methods were established to determine quantitatively the amount of the encapsulated tenofovir based on a UV absorption and determined the percent of tenofovir encapsulation by various vesicle formulations (data not shown). […] One objective of this work was to achieve the maximum amount of tenofovir encapsulated per vesicle along with a minimum loss of the non-encapsulated drug. Accordingly, several parameters were examined, such as varying the ratio among the vesicle components, changing the ratio of tenofovir to bolaamphiphiles, varying the pH of the hydration solution and also adding to the formulation additional additives, in the attempt to increase the encapsulation capacity of the vesicles.
In particular, in order to maximize tenofovir encapsulation the following parameters were studied: (1) tenofovir to GLH ratio; (2) adjusting the concentrations of cholestyrl hemisuccinate (CHEM) and cholesterol (CHOL), components that are used in the vesicle formulation, (3) examining several buffers and pHs in the encapsulation process, (4) time of sonication, and (5) tenofovir concentration, and (6) addition of stearyl amine to the vesicle formulation to enhance encapsulation by complexation with tenofovir.
The vesicles were prepared from formulations with and without SA and the non-encapsulated tenofovir (free tenofovir) was separated from the encapsulated tenofovir on Sephadex G50 column and the absorbance at 260 nm of each fraction collected from the column was read.

[2] = Fluorescence in cerebral cortex after i.v. injection of albumin-FITC; type: in vivo; settings: mouse cerebral cortex fluorescence
Excerpt: FIG. 5A: Fluorescence in mouse cerebral cortex after i.v. injection of albumin-FITC (non-encapsulated) FIG. 5B: Fluorescence in mouse cerebral cortex after i.v. injection of albumin-FITC encapsulated in GLH-20 vesicles.

Compound | effect of stearyl amine on tenofovir encapsulation [1] | delivery to the brain ([2]; encapsulated in GLH-20 vesicles) | brain accumulation ([2]; un-encapsulated)
CCCCCCCCCCCCCCCCCCN [SA, stearyl amine] | increase tenofovir encapsulation | – | –
Albumin-FITC: FITC-labelled protein albumin | – | delivered successfully to the brain | little, if any, brain accumulation
